T1: HpoR (M. smegmatis mc2 155, UniProt A0R4J9 1-199)
T1 sequence: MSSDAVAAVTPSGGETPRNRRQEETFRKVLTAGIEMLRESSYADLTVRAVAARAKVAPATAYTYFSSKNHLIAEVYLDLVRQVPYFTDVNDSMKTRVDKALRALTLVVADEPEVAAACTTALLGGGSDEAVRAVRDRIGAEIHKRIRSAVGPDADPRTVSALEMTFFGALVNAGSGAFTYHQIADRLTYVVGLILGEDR

B1: LtmA (natural protein)
chain: MSDPAMESTRRRLSARQADTVERLGRAAVELISREGYAGLTVRRVAAEAGVGSATAYTYFSSKEHLVAEVFWRRLSAAPPAVHESPDPATRVVEVLQHIASLVADEPAFAGAVTTALLGKDPDVDALRQRIGADIRQRLVAALGPDVRIDVIEALELLYTGTMVWAGMGYDSYEQVVRRLEKSARLVLS

Experiments:
[1] = test system: LtmA (Mycobacterium smegmatis mc2 155); assay: EMSA
[2] = test system: HpoR (Mycobacterium smegmatis mc2 155); assay: EMSA
[3] = molecular target: T1, HpoR; assay: SPR

| Molecule | Kd [1] [nM] | Kd [2] [nM] | Kd [3] [nM] |
| --- | --- | --- | --- |
| Ms5860p | 620 | 290 |  |
| B1 |  |  | 7500 ± 800 |

Reference: article PMC6101608 (Nucleic Acids Research, 2018)
